# Source: paper PMC10815899, “Glyceraldehyde 3-Phosphate Dehydrogenase on the Surface of Candida albicans and Nakaseomyces glabratus Cells—A Moonlighting Protein That Binds Human Vitronectin and Plasminogen and Can Adsorb to Pathogenic Fungal Cells via Major Adhesins Als3 and Epa6” (International Journal of Molecular Sciences, 2024)
# Where “and” joins values, the source holds several entries; their conditions need not be identical. Equal entries are not always repeated.
# T1: Eap1 (epithelial adhesin protein 1) on S. cerevisiae cells (C. albicans, UniProt G1UBC2 19-632)
# T1 construct: Eap1 adhesin of C. albicans presented on the surface of S. cerevisiae; source: S. cerevisiae, overexpressed and surface-presented, on cells
# T1 sequence: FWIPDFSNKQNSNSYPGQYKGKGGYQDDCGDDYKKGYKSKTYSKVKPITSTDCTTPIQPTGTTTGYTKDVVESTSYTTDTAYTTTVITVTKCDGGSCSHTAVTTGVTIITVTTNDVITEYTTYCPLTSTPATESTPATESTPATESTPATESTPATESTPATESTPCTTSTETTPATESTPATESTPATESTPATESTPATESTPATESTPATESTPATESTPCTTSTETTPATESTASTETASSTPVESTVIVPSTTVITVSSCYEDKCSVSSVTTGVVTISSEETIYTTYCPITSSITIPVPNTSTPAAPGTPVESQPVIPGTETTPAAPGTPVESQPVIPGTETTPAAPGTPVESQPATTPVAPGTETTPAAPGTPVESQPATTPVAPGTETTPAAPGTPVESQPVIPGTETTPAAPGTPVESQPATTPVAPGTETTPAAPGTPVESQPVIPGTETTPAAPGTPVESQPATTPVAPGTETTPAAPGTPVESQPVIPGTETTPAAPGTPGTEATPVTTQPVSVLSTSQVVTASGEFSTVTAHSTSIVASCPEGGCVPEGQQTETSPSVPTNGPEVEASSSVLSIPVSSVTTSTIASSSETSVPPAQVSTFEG
# T2: Hwp1 (hyphal wall protein 1) on S. cerevisiae cells (C. albicans, UniProt P46593 28-613)
# T2 construct: Hyphal wall protein 1 of C. albicans presented on the surface of S. cerevisiae; source: S. cerevisiae, overexpressed and surface-presented, on cells
# T2 sequence: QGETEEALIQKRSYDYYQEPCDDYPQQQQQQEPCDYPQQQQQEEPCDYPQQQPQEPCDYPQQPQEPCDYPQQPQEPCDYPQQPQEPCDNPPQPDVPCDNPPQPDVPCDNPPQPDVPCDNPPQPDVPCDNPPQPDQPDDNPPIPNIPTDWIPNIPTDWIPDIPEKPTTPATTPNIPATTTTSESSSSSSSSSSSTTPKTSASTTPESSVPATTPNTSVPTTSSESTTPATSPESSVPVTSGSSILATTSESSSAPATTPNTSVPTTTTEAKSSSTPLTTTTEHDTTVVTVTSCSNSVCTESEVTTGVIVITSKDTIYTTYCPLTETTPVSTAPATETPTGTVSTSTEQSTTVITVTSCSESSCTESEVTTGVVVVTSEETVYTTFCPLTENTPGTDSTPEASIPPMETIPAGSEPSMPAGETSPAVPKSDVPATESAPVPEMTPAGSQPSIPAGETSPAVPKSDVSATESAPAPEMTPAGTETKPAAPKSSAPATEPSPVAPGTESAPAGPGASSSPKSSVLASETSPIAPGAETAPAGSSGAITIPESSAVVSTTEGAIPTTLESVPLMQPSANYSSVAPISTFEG
# T3: agglutinin-like sequence protein 3 (full-length Als3) on S. cerevisiae cells (C. albicans, UniProt Q59L12 18-1134)
# T3 construct: source: S. cerevisiae, overexpressed and surface-presented, on cells
# T3 sequence: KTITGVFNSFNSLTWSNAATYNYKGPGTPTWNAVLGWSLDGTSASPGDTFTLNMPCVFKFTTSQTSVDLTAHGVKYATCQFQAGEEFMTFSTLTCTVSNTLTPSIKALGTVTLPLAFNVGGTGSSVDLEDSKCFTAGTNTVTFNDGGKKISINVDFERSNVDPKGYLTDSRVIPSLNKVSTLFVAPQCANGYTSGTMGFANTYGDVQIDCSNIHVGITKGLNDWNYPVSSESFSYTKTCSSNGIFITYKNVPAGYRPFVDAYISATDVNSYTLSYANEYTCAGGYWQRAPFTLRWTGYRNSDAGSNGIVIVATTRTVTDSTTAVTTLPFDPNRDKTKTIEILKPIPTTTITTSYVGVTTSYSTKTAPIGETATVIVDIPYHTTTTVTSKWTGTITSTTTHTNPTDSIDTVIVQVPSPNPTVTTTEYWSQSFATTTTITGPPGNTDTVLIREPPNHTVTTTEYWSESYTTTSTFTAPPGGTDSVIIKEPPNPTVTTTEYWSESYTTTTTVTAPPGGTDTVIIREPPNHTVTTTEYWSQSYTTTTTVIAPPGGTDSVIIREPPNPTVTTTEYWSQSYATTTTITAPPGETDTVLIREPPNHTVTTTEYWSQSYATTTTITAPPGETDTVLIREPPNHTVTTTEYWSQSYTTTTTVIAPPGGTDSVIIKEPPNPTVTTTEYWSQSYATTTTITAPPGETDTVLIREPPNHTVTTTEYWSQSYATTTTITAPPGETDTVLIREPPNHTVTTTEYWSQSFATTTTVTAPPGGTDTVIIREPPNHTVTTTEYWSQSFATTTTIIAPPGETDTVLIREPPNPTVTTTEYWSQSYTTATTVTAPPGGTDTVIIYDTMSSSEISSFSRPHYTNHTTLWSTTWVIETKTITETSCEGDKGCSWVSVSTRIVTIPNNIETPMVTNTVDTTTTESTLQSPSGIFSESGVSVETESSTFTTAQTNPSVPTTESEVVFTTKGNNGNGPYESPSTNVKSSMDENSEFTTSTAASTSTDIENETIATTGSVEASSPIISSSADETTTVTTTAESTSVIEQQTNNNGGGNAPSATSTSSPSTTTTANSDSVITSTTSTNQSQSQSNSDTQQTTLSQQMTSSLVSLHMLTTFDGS
# B1: recombinant Candida albicans glyceraldehyde 3-phosphate dehydrogenase (enzyme, C. albicans, UniProt Q5ADM7 1-335, looked up)
# chain: MAIKIGINGFGRIGRLVLRVALGRKDIEVVAVNDPFIAPDYAAYMFKYDSTHGRYKGEVTASGDDLVIDGHKIKVFQERDPANIPWGKSGVDYVIESTGVFTKLEGAQKHIDAGAKKVIITAPSADAPMFVVGVNEDKYTPDLKIISNASCTTNCLAPLAKVVNDTFGIEEGLMTTVHSITATQKTVDGPSHKDWRGGRTASGNIIPSSTGAAKAVGKVIPELNGKLTGMSLRVPTTDVSVVDLTVRLKKAASYEEIAQAIKKASEGPLKGVLGYTEDAVVSTDFLGSSYSSIFDEKAGILLSPTFVKLISWYDNEYGYSTRVVDLLEHVAKASA
# modifications: biotin (NHS-biotin) in the microplate and yeast-cell binding assays; Alexa Fluor 647 in flow cytometry
# notes: no tag (pLATE11); By gel filtration predominantly a tetramer, with marked proportions of dimers and monomers; The forward primer carries ATGATG (the vector adapter's ATG and the gene's own), so an extra N-terminal Met may be present; also called CaGAPDH; GAPDH; source: E. coli Rosetta 2 (DE3), pLATE11, purified (ammonium sulfate fractionation, ResourceQ)
# Tests used:
# [1] = target: the molecule itself; test: SEC; Superdex 200 HR 10/50, calibrated with molecular mass standards, 0.5 mL/min; buffer 20 mM Tris-HCl pH 6.7 (methods) or 50 mM NaH2PO4, 150 mM NaCl pH 7.0
# [2] = target: T1, Eap1 (epithelial adhesin protein 1) on …; test: whole-cell binding assay (biotin-labeled protein, SA-HRP/TMB); S. cerevisiae cells presenting the adhesin (3 × 10^7 cells per tube); biotin-labeled CaGAPDH 0–400 nM, 1 h at 37 °C; one-site specific binding model, estimated dissociation constants; details: one partner purified
# [3] = target: T2, Hwp1 (hyphal wall protein 1) on S. …; test: as above; details: one partner purified
# [4] = target: T3, agglutinin-like sequence protein 3 …; test: as above; details: one partner purified
binder,measurement,setting,value
B1,stoichiometry N,[1],4 and 2
same,Kd,[2],1250 nM
same,Kd,[3],715 nM
same,Kd,[4],95.9 nM
